Measured values taken from patent publication US20130012427A1.

Experiments:
Experiment in all cases: cell-based or functional assay
[1] = target: human calcitonin (a) receptor (human) (UniProt P30988)
[2] = target: human amylin 3(a) receptor (human calcitonin receptor co-expressed with RAMP-3) (human) (UniProt P30988)
[3] = target: human amylin 3(a) receptor (human calcitonin receptor with RAMP-3) (human) (UniProt P30988)
human amylin 3(a) receptor (human calcitonin receptor with RAMP-3) (human), sequence (P30988 25-474, chain 1 of 2): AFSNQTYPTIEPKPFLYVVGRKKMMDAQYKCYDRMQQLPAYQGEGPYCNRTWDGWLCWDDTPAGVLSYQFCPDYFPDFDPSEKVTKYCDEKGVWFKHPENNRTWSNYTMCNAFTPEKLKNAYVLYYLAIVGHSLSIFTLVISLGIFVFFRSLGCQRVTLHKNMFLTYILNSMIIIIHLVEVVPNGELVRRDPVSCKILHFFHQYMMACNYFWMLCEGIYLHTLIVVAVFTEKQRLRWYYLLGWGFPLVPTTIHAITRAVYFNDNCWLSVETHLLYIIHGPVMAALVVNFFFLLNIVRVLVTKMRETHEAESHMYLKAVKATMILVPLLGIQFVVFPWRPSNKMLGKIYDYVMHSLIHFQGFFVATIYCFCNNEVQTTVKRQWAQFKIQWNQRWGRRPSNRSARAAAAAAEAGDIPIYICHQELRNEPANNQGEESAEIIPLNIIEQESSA
human amylin 3(a) receptor (human calcitonin receptor with RAMP-3) (human), sequence (O60896 24-148, chain 2 of 2, further chain): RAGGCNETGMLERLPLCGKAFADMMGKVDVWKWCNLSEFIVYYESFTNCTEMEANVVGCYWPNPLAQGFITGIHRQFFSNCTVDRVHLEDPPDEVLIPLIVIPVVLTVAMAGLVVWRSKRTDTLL

human amylin 3(a) receptor (human calcitonin receptor co-expressed with RAMP-3) (human), sequence (P30988 25-474, chain 1 of 2): as the sequence (P30988 25-474, chain 1 of 2) above
human amylin 3(a) receptor (human calcitonin receptor co-expressed with RAMP-3) (human), sequence (O60896 24-148, chain 2 of 2, further chain): as the sequence (O60896 24-148, chain 2 of 2, further chain) above
human calcitonin (a) receptor (human), sequence (P30988 25-474): as the sequence (P30988 25-474, chain 1 of 2) above

CTa receptor human EC50 (pM) [1]: 61.5 pM | Amylin receptor human EC50 (pM) [2]: 45 pM | Amylin receptor human EC50 (pM) [3]: 45 pM
Substance: N-alpha-(19-carboxynonadecanoyl)-Glu-Glu-Arg-[Glu1,Pro37]-pramlintide (peptide)
